The values below come from article PMC9288967.

The target of this experiment is SARS-CoV-2 spike RBD (wild type) (SARS-CoV-2) (UniProt P0DTC2). Description: cross-linking.

Turning to mNb6(108FFY) (VHH), the kobs (apparent first-order constant of cross-linking) is 0.244 h⁻¹. As for mNb6(108FSY) (VHH), the kobs (apparent first-order constant of cross-linking) came to 0.102 h⁻¹.
